Laboratory results from paper PMC7979726 (Nature Communications, 2021).

Biological target: T1, Mcm3 (S. cerevisiae, UniProt P24279 1-971)
T1 construct: Mcm3, S. cerevisiae; native protein without extra amino acids after SUMO cleavage; source: Champion pET SUMO Protein Expression System (Invitrogen); purified individually; protocols in Supplementary Data; not shown: SUMO, N-terminal, cleaved
Test: SEC; individually purified subunits mixed and the complex (Mcm5/3/7, Mcm2/6/4 or MCM-Cdt1) isolated by gel filtration
Settings: both partners purified

T1 sequence (P24279 whole entry): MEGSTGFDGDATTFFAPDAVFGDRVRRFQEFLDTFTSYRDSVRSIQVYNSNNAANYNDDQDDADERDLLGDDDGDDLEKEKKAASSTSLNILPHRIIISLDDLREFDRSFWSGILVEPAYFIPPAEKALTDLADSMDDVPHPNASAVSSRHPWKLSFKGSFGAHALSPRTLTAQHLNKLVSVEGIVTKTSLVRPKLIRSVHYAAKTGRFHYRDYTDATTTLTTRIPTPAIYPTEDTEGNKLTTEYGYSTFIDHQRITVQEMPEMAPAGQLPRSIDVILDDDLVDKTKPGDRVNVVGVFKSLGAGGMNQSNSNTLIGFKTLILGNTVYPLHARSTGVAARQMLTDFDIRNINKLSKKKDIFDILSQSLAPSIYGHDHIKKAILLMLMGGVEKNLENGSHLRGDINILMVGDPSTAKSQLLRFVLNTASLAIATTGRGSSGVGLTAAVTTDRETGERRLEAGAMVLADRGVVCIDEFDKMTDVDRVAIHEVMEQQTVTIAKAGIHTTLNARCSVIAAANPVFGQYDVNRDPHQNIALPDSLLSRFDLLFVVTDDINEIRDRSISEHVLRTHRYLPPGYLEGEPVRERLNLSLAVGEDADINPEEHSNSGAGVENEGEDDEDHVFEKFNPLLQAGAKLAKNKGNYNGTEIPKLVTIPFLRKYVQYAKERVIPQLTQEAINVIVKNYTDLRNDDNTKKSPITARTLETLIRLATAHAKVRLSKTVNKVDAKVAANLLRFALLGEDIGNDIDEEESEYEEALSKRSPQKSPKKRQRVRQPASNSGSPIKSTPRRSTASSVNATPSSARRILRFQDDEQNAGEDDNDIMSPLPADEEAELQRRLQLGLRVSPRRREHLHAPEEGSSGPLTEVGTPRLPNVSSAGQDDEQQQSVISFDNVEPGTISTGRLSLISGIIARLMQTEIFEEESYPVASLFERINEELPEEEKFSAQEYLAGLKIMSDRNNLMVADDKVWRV

binding result: binds
B1: Mcm7 (natural protein, S. cerevisiae, UniProt P38132 1-845, looked up)
chain: MSAALPSIQLPVDYNNLFNEITDFLVTFKQDTLSSDATRNENEDENLDAENIEQHLLEKGPKYMAMLQKVANRELNSVIIDLDDILQYQNEKFLQGTQADDLVSAIQQNANHFTELFCRAIDNNMPLPTKEIDYKDDVLDVILNQRRLRNERMLSDRTNEIRSENLMDTTMDPPSSMNDALREVVEDETELFPPNLTRRYFLYFKPLSQNCARRYRKKAISSKPLSVRQIKGDFLGQLITVRGIITRVSDVKPAVEVIAYTCDQCGYEVFQEVNSRTFTPLSECTSEECSQNQTKGQLFMSTRASKFSAFQECKIQELSQQVPVGHIPRSLNIHVNGTLVRSLSPGDIVDVTGIFLPAPYTGFKALKAGLLTETYLEAQFVRQHKKKFASFSLTSDVEERVMELITSGDVYNRLAKSIAPEIYGNLDVKKALLLLLVGGVDKRVGDGMKIRGDINVCLMGDPGVAKSQLLKAICKISPRGVYTTGKGSSGVGLTAAVMKDPVTDEMILEGGALVLADNGICCIDEFDKMDESDRTAIHEVMEQQTISISKAGINTTLNARTSILAAANPLYGRYNPRLSPLDNINLPAALLSRFDILFLMLDIPSRDDDEKLAEHVTYVHMHNKQPDLDFTPVEPSKMREYIAYAKTKRPVMSEAVNDYVVQAYIRLRQDSKREMDSKFSFGQATPRTLLGIIRLSQALAKLRLADMVDIDDVEEALRLVRVSKESLYQETNKSKEDESPTTKIFTIIKKMLQETGKNTLSYENIVKTVRLRGFTMLQLSNCIQEYSYLNVWHLINEGNTLKFVDDGTMDTDQEDSLVSTPKLAPQTTASANVSAQDSDIDLQDA
notes: Mcm7, S. cerevisiae; native protein without extra amino acids after SUMO cleavage; source: Champion pET SUMO Protein Expression System (Invitrogen); purified individually; protocols in Supplementary Data; not shown: SUMO, N-terminal, cleaved
